Reference: patent US20230250185A1 (ARCELLX, published 2023)
Positions count from the first letter of the chain named. Numbers in names are those of the source. Read-outs that look alike come from different tables or passages of the source.

Legend:
[1] = biological target: T1, CD123-Fc (Sino Biological) (human, UniProt P26951 19-305); test: ELISA, serial dilution of MBP fusion normalized for protein concentration; readout CD123-Fc Binding (A450)
T1 construct: Bought reagent; not shown: Fc part of the bought fusion (detected with anti-human Fc HRP)
T1 sequence: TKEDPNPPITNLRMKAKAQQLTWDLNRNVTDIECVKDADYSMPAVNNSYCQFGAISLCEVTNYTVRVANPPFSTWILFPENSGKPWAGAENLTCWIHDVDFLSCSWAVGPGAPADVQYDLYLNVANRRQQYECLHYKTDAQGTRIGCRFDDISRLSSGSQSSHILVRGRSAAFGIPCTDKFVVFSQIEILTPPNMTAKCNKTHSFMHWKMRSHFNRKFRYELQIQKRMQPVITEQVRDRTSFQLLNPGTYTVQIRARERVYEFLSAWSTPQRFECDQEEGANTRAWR

[2] = biological target: T1, CD123-Fc (Sino Biological); test: as above; remark: listed apart in the source
[3] = biological target: T1, CD123-Fc (Sino Biological); test: BLI (Octet RED386): CD123-Fc captured on AHC sensor, Adapter in solution 500-0.69 nM, 25 C, global 1:1 fit

B1: 8W9C D domain as MBP fusion (designed binder)
chain: MGSWDEFGRRLYAIEWRLYALGGSEAELAAFEKEIAAFESELQAYKGKGNPEVEKLREIAAVIRSNLQAYRHN
notes: Expressed in E. coli and assayed from leak-out supernatant; also called wild-type (8W9C); parental 8W9C; not shown: limits, linker and position relative to the D dom
- EC50 [1]: 7.47 ng/mL
- EC50 [2]: 6.97 ng/mL

B2: 1J1K D domain as MBP fusion (designed binder, not shown: large carriers; small tags and cut ends)
chain: B1 chain with G8S
notes: also called 8W9C (G8S)
- EC50 [1]: 3.69 ng/mL

B3: 4H2H D domain as MBP fusion (designed binder, not shown: large carriers; small tags and cut ends)
chain: B1 chain with K48I, K55N
notes: also called 8W9C (K48I, K55N)
- EC50 [2]: 5.4 ng/mL

B4: 6Z5E D domain as MBP fusion (designed binder, not shown: large carriers; small tags and cut ends)
chain: B1 chain with N50S
notes: also called 8W9C (N50S)
- EC50 [2]: 3.26 ng/mL

B5: 5S5W D domain as MBP fusion (designed binder)
chain: MGSWSEFNMRLDAIYERLTALGGSEAELAAFEKEIAAFESELQAYKGKGNPEVEWLRHSAARIRLELQAYRHN
notes: not shown: limits, linker and position relative to the D dom
- EC50 [1]: 68.7 ng/mL
- EC50 [2]: 57.9 ng/mL

B6: 5B7L D domain as MBP fusion (designed binder)
chain: B5 chain with S5I, T19V, H58K, S59V, R62N
notes: as for B5
- EC50 [1]: 5.12 ng/mL
- EC50 [2]: 3.72 ng/mL

B7: Adapter protein comprising the 8W9C D domain and P26(Q26-V229) AFP polypeptide (designed binder)
chain: B1 chain
- Kd [3]: 5.2 nM
- koff [3]: 0.000924 s⁻¹
- kon [3]: 177000 M⁻¹ s⁻¹

B8: Adapter protein comprising the 1F9I D domain and P26(Q26-V229) AFP polypeptide (designed binder)
chain: B1 chain with R17Q, L21Q, S24T, I59L, S65E
- Kd [3]: 7.6 nM
- koff [3]: 0.000646 s⁻¹
- kon [3]: 85200 M⁻¹ s⁻¹
